Experimental findings from article PMC11629678, “Hypoxia favors tumor growth in colorectal cancer in an integrin αDβ1/hemoglobin δ-dependent manner” (Life Science Alliance, 2024) are described below.

The data set concerns the molecule itself. Nature of the data set: SDS-polyacrylamide gel electrophoresis and blot; recombinant His-tagged Hbδ and Hbβ (HbAo) on a 4-20% SDS gel and blotted; non-reducing conditions in the legend, reducing conditions in the text.

B1: recombinant Hbδ (natural protein)
chain: not shown
notes: hemoglobin subunit delta, recombinant, His-tagged (Origene); No catalogue number is printed; also called His-tagged recombinant Hbδ; source: bought: Origene
As for B1, the binding result is reported as “binds”.
